Source: IntAct's records for PubMed 23824069

B1: Phosphatidylinositol 4,5-bisphosphate 3-kinase catalytic subunit gamma isoform (Homo sapiens), P48736 (parent)
chain: MELENYKQPVVLREDNCRRRRRMKPRSAAASLSSMELIPIEFVLPTSQRKCKSPETALLHVAGHGNVEQMKAQVWLRALETSVAADFYHRLGPHHFLLLYQKKGQWYEIYDKYQVVQTLDCLRYWKATHRSPGQIHLVQRHPPSEESQAFQRQLTALIGYDVTDVSNVHDDELEFTRRGLVTPRMAEVASRDPKLYAMHPWVTSKPLPEYLWKKIANNCIFIVIHRSTTSQTIKVSPDDTPGAILQSFFTKMAKKKSLMDIPESQSEQDFVLRVCGRDEYLVGETPIKNFQWVRHCLKNGEEIHVVLDTPPDPALDEVRKEEWPLVDDCTGVTGYHEQLTIHGKDHESVFTVSLWDCDRKFRVKIRGIDIPVLPRNTDLTVFVEANIQHGQQVLCQRRTSPKPFTEEVLWNVWLEFSIKIKDLPKGALLNLQIYCGKAPALSSKASAESPSSESKGKVQLLYYVNLLLIDHRFLLRRGEYVLHMWQISGKGEDQGSFNADKLTSATNPDKENSMSISILLDNYCHPIALPKHQPTPDPEGDRVRAEMPNQLRKQLEAIIATDPLNPLTAEDKELLWHFRYESLKHPKAYPKLFSSVKWGQQEIVAKTYQLLARREVWDQSALDVGLTMQLLDCNFSDENVRAIAVQKLESLEDDDVLHYLLQLVQAVKFEPYHDSALARFLLKRGLRNKRIGHFLFWFLRSEIAQSRHYQQRFAVILEAYLRGCGTAMLHDFTQQVQVIEMLQKVTLDIKSLSAEKYDVSSQVISQLKQKLENLQNSQLPESFRVPYDPGLKAGALAIEKCKVMASKKKPLWLEFKCADPTALSNETIGIIFKHGDDLRQDMLILQILRIMESIWETESLDLCLLPYGCISTGDKIGMIEIVKDATTIAKIQQSTVGNTGAFKDEVLNHWLKEKSPTEEKFQAAVERFVYSCAGYCVATFVLGIGDRHNDNIMITETGNLFHIDFGHILGNYKSFLGINKERVPFVLTPDFLFVMGTSGKKTSPHFQKFQDICVKAYLALRHHTNLLIILFSMMLMTGMPQLTSKEDIEYIRDALTVGKNEEDAKKYFLDQIEVCRDKGWTVQFNWFLHLVLGIKQGEKHSA
partner: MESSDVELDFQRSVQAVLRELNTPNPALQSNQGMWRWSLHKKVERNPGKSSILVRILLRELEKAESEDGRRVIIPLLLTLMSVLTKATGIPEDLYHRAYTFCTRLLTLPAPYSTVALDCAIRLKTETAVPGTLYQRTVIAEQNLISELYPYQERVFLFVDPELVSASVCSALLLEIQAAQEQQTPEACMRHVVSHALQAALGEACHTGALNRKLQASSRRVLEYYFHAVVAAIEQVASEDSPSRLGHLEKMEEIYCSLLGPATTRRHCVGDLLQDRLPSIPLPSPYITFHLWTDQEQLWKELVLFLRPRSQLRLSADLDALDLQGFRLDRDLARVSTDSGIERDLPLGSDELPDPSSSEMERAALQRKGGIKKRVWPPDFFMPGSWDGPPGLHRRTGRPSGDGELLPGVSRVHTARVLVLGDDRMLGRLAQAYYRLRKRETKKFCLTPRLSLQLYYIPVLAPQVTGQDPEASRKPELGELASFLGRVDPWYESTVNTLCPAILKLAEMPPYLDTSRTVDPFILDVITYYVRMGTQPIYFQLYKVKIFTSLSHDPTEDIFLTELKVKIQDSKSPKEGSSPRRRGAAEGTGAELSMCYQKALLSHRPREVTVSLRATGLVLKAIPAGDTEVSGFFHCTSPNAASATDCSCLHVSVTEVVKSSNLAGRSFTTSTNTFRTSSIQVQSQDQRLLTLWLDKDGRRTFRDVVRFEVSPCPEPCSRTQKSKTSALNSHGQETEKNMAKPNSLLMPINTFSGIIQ

Variants of: B1
Details: with pi3r6_mouse Pik3r6, Q3U6Q4

effect of a mutation on the interaction | Variant
decreasing interaction strength | S582E
decreasing interaction strength | S582D
